Experimental data reported in the nanobody polyreactivity screen of Harvey et al. (2022).

Assay: yeast display, Sf9 membrane polyspecificity reagent, FACS + sequencing; frameworks hold sequencing errors
Method in brief: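 In a synthetic yeast display library (Saccharomyces cerevisiae BJ5465), nanobody expression was induced with galactose for 36–48 hours. FACS gates were set low and high (top ~1%) using anti-HA fluorescence for expression and streptavidin fluorescence for binding of the Sf9 membrane reagent. Each polyreactivity label is drawn from the gate of origin.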

Sequence	polyreactivity (PSR sort gate)
QDQLVESGGGLVQAGGSLRLSCAASGSTFSNYAMGWYRQAPGKERELVASISQSGGSTYYADSVKGRFTISRDNAKNTVYLQMNSLKPEDTAVYYCAADVAQVGYQVGVSEIYPGYEYWGQGTQVTVSS	low polyreactivity
QVQLVESGGGLVQAGGILRLSCAASGSTLGKNAMGWYRQAPGKERELVAAISYSGGSTYYADSVKGRFTISRDNAKNTVYLQMNSLKPEDTAVYYCAAQRRYHYWGQGTQVTVSS	low polyreactivity
QVQLVESGGGLVQAGGSLRLSCAASGSIFESYAMGWYRQAPGKERELVAAIDYSGGSTYYADSVKGRFTISRDNAKNSVYLQMNSLKREDTAVYYCAAGYRTYYGYRYGYWGQGTQVTVSS	high polyreactivity
QVQLVESGGGLVQAGRSLRLSCAASGITLVRNAMGWSRQAPGKEMELVAAISSNGDNTYYADSVKGRFTISSDNAKNTVYLQMNSLKPEDTAVYYCAVGGPVIWWGPKYDYWGQGTQVTVSS	high polyreactivity
QVQLVESGGGLVQAGGSLRLSCAASGSTFNDYTMGWYRQAPGKERELVAAITDSGGSTYYADSVKGRFTISRDNAKNTVYLQMNSLKPEDTAVYYCAAAVPELYEVRYHDDYWGQGTQVTVSS	low polyreactivity
QVQLVESGGGLVQAGGSLRLSCAASGSTFRYYAMGWYRQAPGKERELVAAISGSGGRTYYADSVKGRFTISRDNAKNTVYLQMNSLKPEDTAVYYCITRGRRTDYDYWGQGNQVTVSS	high polyreactivity
QVQLVESGGGLVQAGGSLRLSCAASGFIFGYYAMGWYRQAPGKERELVAAISRGGITYYADSVKGRFTISRDNAKNTVYLQMNSLKPEDTAVYYCAAPNRYSVPMYYWGQGTQVTVSS	low polyreactivity
QVQLVESGGGLDQAGGSLRVSCAASGSTFHRNAMGWYRQAPGKERELVAAITSGGSTNYADSVKGRFTISRDNAKNTVYLQMNSLNPEDTAVYYCAKDYLHYNRGWYDYWGQGTQVTVSW	low polyreactivity
QVQLVESGGGLVQAGGSLRLSCASSGRIFGVYAMGWYRQAPGKERELVAAITRGASTYYADSVKGRFTISRDNAKNTVYLQMNSLKPEDTAVYYCAVSQDRGIYRKYDYWGQGTQVTVSS	high polyreactivity
QVQLVDSGGGLVQAGGSLRLSCAASGSIFYHNAMGWSRQAPGKERELVAAITWSGSTTYYADSVKGRFTISRDNAKNTVYLQMNRLKPEDTAVYYCAVDIYYYSNVHYYYWGQGTQVTVSS	low polyreactivity
QVQLVESGGGLVQAGGSLRLSCAASGRIFVNNAMGWYRQAPGKEREFDATITSSGGRTYYADSVKGRFTISRDNAKYTVYLQMNSLKPEDTAVYYCAARPQNNGRNPVYRYNYWGQGTQVTVSS	high polyreactivity
QVQLVESGGGLVQAGGSLRLSCAASGSIFYFNAMGWYRQAPGKERELVASITSGGSTNYADSVKGRFTISRDNAKNTVYLQMNSLKPEDTAVYYCNKRVHYIAGRGYDYWGQGNQVTVSS	low polyreactivity
QVQLVESGGGLVQAGGSLRLSCAASGFTFWRYAMGWYRQAPGKEREFVAVISISSGTTYADSVKGRFTITRDNAKNTVYLQMNSLKPEDTAVYYCAAAIGVYYIEYRYLGTVEYWGQGTQVTVSS	low polyreactivity
QVQLVESGGGLVQAGGSLRLSCAASGSIFFGYAMGSYRQAPGKERELVAAISTRGGSTYYADSVKGRFTISRDNAKNTFYLQMNSLKPEDTAVYYSAADYLDSTYGYVYGWDDYWGQGTQVTVSS	low polyreactivity
QVQLVESGGGLVQAGGSLRLSCAASGFIFDWYTMGWYRQAPGKERELVAAITIGGSTDYADSVKGRFTISRDNAKNTVYLQMNSLKPEDTAVYYCNALWYLSGTWYDYWGQGTQVTVSS	low polyreactivity
QVQLVESGGGLVQAGGSLRLSCAASGSIFDPYTMGWYRHEPGKESELVAAINWSGGSTYYADSVKGRFTISRENAKYTVYLQMNSLKPEDTAVYYCNADLTSYYEEDERNDDDYWGQGTQVTVSS	low polyreactivity
QVQLVESGGGLVQAGGSLRLSCAASGRIFDVYAMGWYRQAPGKERELVATITCSGGGTYYADSVKGRFTISRDNAKNSVYLQMNSLKPEDTAVYYCAADYYPTYAYYVSNVGYDYWGQGTQVTVSS	low polyreactivity
QVQLVESGGGLVQAGGSLRLSCAASGFILAYYAMGWYRQAPGKERELVAAISIGSSTDYADSVKGRFTISRDNAKNTVYLQMNSLKPEDTAVYYCAATYVYWTWGYDYWGQGTQVTVSS	low polyreactivity
QVQLVESGGGLVQAGGSLRLSCAASGSIFLKYVMGWYRQATGKEMELVAAISSAGGTYYADSVKGRFTISRDNEKYTVYLQMICLKPEDTAVYYCGRRPYRGSYAYDYWGQGSQVTVSS	low polyreactivity
QVQLVESGGGVVHAGGSLRLSCAASGLIFRYYAVGGYRPAPGKERELVARISTRGGSTYYADSVKGRFTISRDNAKNTVYLPMNSLKPEDTAVYYCAAVNGLYYHKYGYYWGQGTQVTVSS	high polyreactivity
QVQLVESGGGLVQAGGSLRLSCAASGSIFGAYAMGWYRQAPGKERELVATITLRDGSTYYADSVKGRFTISRDNAKNTVYLQMNSLKPEDTAVYYCATYYSAINYGWSNTILYDYWGQGTQVTVSS	low polyreactivity
QVQLVESGGGLVQAGGSLRLTCAASGRTFYYYAMGWYRQAPGKERELVAAISRSGGSTYYADSVKGRFTISRDNSKNTVYLQMNSLKPEDTAVYYCAKVAITSSGYWRYDYWGQGTQVTVSS	high polyreactivity

Sequence	polyreactivity (PSR sort gate)
QVQLVESGGGLDQAGGSLRLSCAASGRIFRCYAMGWYREAPGKERELVAAISWSSGNTYYADSVKGRFTISRDNAKNTVYLQMNSLKAEDTAVYYCAADFKPTSRSNKYYYWGQGTQVTVSS	high polyreactivity
QVQLVESGGGLVQAGGSLRLSCAPSGSTYSRYAMGWYRQAPGKERELVAAISRSGGTTNYADSVKWRFTISRDNAKNTVYLQMNSLKPEDTAVYYCAAYLPFRQGRYGYEYWGQGTQVTVSS	high polyreactivity
QVQLVESGGGLVQAGGSLRLSCAASGITFTLYAMGWYRQAPGKERELVASISWSGGSTYYADSVKGRFTISRDIAKNTVYLQMNSLKPEDTAVYYCNAVYARKYYYSHGYDYWGQGTQVTVSS	high polyreactivity
QVQLVESGGGLVQAGGSLRLSCAASGSTFPSNAMGWYRQAPGKERELVAAISRSGGSTYYADSVKGRFTISRDNAKNTVYLQMNSLKPEDTAVYYCAVQVRPNSGGTRIHRGGYDYWGQGTQVTVSS	low polyreactivity
QVQLVESGGGLFQAGGSLRLSCAASGSNFDYNAMGWYRPAHGKERELVAAITSTDSTYADSVKGRFTISRDTAKNTVYLQMNRLKPEDTAVYYCAAEDVIYYLTGQWREYDYWGQGTQVTVSS	low polyreactivity
QVQLVESGGGLVQAGGSLRLSCAASGLIFVNAMGWYRQAPGKEREFVAAITYSTGSTYYADSVKGRFTISRDNAKNTVYLQMNSLKPEDTAVYYCAKDRSGHGTERDYWGQGTQVTVSS	low polyreactivity
QVQLVESGGGLVQAGGSLRLSCAASGRNFFRYAMGWYRQAPGKERELVATISRSGGTYADSVKGRFTISRDNAKNTVYLQMNSLKPEDTAVYYCNARTLYAYITRDYWGQGTQVTVSS	high polyreactivity
QVQLQESGGGQVHAGGSLRLSCAASGTIFLYAFMGWYRQPPAKERELVAAIDVGTTTNYADSVKGRFTISRDNEKNTVYLQMNSLKPEDTAVYYCAANLGYLDDLGYWGQGTQVTVSS	low polyreactivity
QVQLVESGGGLVQAGGSLRLSCAASGIIFYYYTMGWYRQAPGKERELVASISRDGGSTHYADSVKGRFTISRDNAKNTVYLLMNSLKPEDTAVYYCAARDPTGSSYAFYRRKVYYWGQGTQVTVSS	high polyreactivity
QVQLVESVGGLVQAGGSLRLSCAASGLIFAYYAMGWYRQAPGKERELVAAISWTGGSTYYADSVKGRFTISRDNAKNTVYLQMNSLKPEDTAVYYCNTVGKPGFYSWGQGTQVTVSS	high polyreactivity
QVQLVESGGGLVQAGGSLRLSCAASGFIFGLYDMGWYRQAPGKERELVAAISWSGGSTYYADSVKGRFTISRDNAKNTVYLQMNSLKPQDTAFYYCAAKHVGWYVQEEDYWGQGSQVTVSS	low polyreactivity
QVQLVESGGGLVQAGGSLRLSCAASGRTFYPNVMGWYRQAPGKERELVAAISISGGSTRYADSVKGRFTISRDNAKNTVYLQMNSLKPEDTAVYYCAAGYIYWYYSYDYWGQGTQVTVSS	high polyreactivity
QFQLVESGGGLVQAGGSLRLSCAASRYTFTLYAMGCYRQAPGKVRELVAAISWSSGSTYYADSVKGRFTISRDNEKNTVYLQMNSLKPEDTAVYYCNARRFGLTQYYYWGQGTQVTVSS	low polyreactivity
QVQLVESGGGLVQAGGSLRLSCAASGSIFSRNAKGWYRQAPGKERELVAAITSGGSTNYADSVKGRFTISRDNAKNTVYLQMNSLKPEDTAVYYCARGWISGFTSRYSIRVLFDYWGQGTQVTVSS	high polyreactivity
QVQLVESGGGLVQAGGSLRLSCAASGSIFGENAMGGYRQAPGKERELVAAITSGGSTDYADSVKGRFTISRDNAKNTVYLQMNSLKPEDTAVYYCAASGRVGPGYWYDSWGQGTQVTVSS	low polyreactivity
QVQLVESGGGLDQAGGSLRLSCAASGITFVWNAMGWYRQAPGKERELVATISRGGVRTYYADSVKGRFTISRDNAKNTVYLQMNSLKPEDTAVYYCNKTTLLTVEYDYWGQGTQLTVSS	low polyreactivity
QVQLVESGGGLVQAGGSLRLSCAASGSIFLVNAKGCYRQAPGKARELVAAITYGGDSTYYADSVKGRFTISRDNAKNTVYLQMNSLKPEDTAVYYCAADAWVGWHDEYDYWGQGTQVTVSS	low polyreactivity
QLHLVESGGGLVQAGGSLRLSCAASGRIFGVYAMGWYRQAPGKERELVASITWRGGSTYYADSVKGRFTISRDNAKNTVYLQMNSLKPEDTAVYYCAAAYWYAYEYWGQGTQVTVSS	high polyreactivity
QVQLVESGGGIVQAGGSLRLSCAASGNIFGGYAMGWYRQAPGKERELVAAISQRGGITYYADSVKGRFTISRDNAKNTVYLQMNSLKPEDTAVFYCAKRGPYGWYGAYDYWGQGTQVTVSS	low polyreactivity
QVQLVESGGGLVQAGGSLRLTCAASGRIFTTNAMGWYRQAPGKERELVAAITSGASTYADSVKGRVTISRDNAKNTGYLQMNSLKPEDTAVYAESTYNWYYYYWGQGTQVTVSS	low polyreactivity
QVQLVESGGGLVQAGGSLRLSCAASGRTFGKNAMGWYRQAPGKEREFVAAITSRGGSTYYADSVKGRFTISRDNAKNTVYLQMNSLIPEDTAFYYCNREYKRPSQRTEHYYWGQGTQVTVSS	low polyreactivity
